Source: patent US20250333512A1 (PLANTVAX, published 2025)

Experiments:
Assay in all cases: cell-based or functional assay
[1] = molecular target: chimeric receptor containing a rhesus macaque FcγRIII ectodomain and the CD3ζ intracellular signaling domain (rhesus macaque, UniProt A3RFZ7 21-206)
[2] = molecular target: chimeric receptor containing a rhesus macaque FcγRI ectodomain and the CD3ζ intracellular signaling domain (rhesus macaque, UniProt A0A7G8YX43 16-293)
[3] = molecular target: chimeric receptor containing a rhesus macaque FcγRIIB ectodomain and the CD3ζ intracellular signaling domain (rhesus macaque, UniProt A0A7G8YX88 43-217)
[4] = molecular target: chimeric receptor containing a rhesus macaque FcγRIIA ectodomain and the CD3ζ intracellular signaling domain (rhesus macaque, UniProt A0A7G8YX83 34-216)

Sequence of chimeric receptor containing a rhesus macaque FcγRIII ectodomain and the CD3ζ intracellular signaling domain (A3RFZ7 whole entry, change not shown, the tested form may be a part): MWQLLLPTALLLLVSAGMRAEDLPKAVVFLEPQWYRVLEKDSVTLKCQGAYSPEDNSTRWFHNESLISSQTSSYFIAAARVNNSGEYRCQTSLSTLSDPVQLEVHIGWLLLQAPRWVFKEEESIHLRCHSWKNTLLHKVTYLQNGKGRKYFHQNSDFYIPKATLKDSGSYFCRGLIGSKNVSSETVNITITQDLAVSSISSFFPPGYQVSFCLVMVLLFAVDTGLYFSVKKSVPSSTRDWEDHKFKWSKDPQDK

Binder	EC50 (IL-2 ELISA) [1] [µg/mL]	EC50 (IL-2 ELISA) [2] [µg/mL]	EC50 (IL-2 ELISA) [3] [µg/mL]	EC50 (IL-2 ELISA) [4] [µg/mL]
Nb PGT121 (antibody, Plant-type N-glycan at heavy-chain N312 (EU N297); letters unchanged.) heavy: not shown light: SDISVAPGETARISCGEKSLGSRAVQWYQHRAGQAPSLIIYNNQDRPSGIPERFSGSPDSPFGTTATLTITSVEAGDEADYYCHIWDSRVPTKWVFGGGTTLTVLRTVAAPSVFIFPPSDEQLKSGTASVVCLLNNFYPREAKVQWKVDNALQSGNSQESVTEQDSKDSTYSLSSTLTLSKADYEKHKVYACEVTHQGLSSPVTKSFNRGEC	> 50	~0.71	> 50	> 50
Nb PGT121-LS (antibody, Plant-type N-glycan (partly unoccupied) at heavy-chain N312 (EU N297); letters unchanged.) heavy: QMQLQESGPGLVKPSETLSLTCSVSGASISDSYWSWIRRSPGKGLEWIGYVHKSGDTNYSPSLKSRVNLSLDTSKNQVSLSLVAATAADSGKYYCARTLHGRRIYGIVAFNEWFTYFYMDVWGNGTQVTVSSASTKGPSVFPLAPSSKSTSGGTAALGCLVKDYFPEPVTVSWNSGALTSGVHTFPAVLQSSGLYSLSSVVTVPSSSLGTQTYICNVNHKPSNTKVDKKVEPKSCDKTHTCPPCPAPELLGGPSVFLFPPKPKDTLMISRTPEVTCVVVDVSHEDPEVKFNWYVDGVEVHNAKTKPREEQYNSTYRVVSVLTVLHQDWLNGKEYKCKVSNKAFPAPIEKTISKAKGQPREPQVYTLPPSRDELTKNQVSLTCLVKGFYPSDIAVEWESNGQPENNYKTTPPVLDSDGSFFLYSKLTVDKSRWQQGNVFSCSVLHEALHSHYTQKSLSLSPGK light: SDISVAPGETARISCGEKSLGSRAVQWYQHRAGQAPSLIIYNNQDRPSGIPERFSGSPDSPFGTTATLTITSVEAGDEADYYCHIWDSRVPTKWVFGGGTTLTVLRTVAAPSVFIFPPSDEQLKSGTASVVCLLNNFYPREAKVQWKVDNALQSGNSQESVTEQDSKDSTYSLSSTLTLSKADYEKHKVYACEVTHQGLSSPVTKSFNRGEC	> 50	1.2	> 50	> 50
